According to publication PMC13276077:

Tests used:
Assay in all cases: EMSA
MeCP2 MBD (Homo sapiens) = MeCP2 MBD (Homo sapiens) (UniProt P51608); settings: EMSA: 20 mM HEPES pH 7.5, 75 mM NaCl, 125 mM KCl, 50 uM EDTA, 2.5 mM beta-mercaptoethanol, 5% glycerol, BSA, 1.58 uM 47 bp competitor DNA (absent in free DNA …)
[1] = target: MeCP2 full-length, e2 isoform (Homo sapiens) (UniProt P51608); settings: EMSA: 20 mM HEPES pH 7.5, 75 mM NaCl, 125 mM KCl, 50 uM EDTA, 2.5 mM beta-mercaptoethanol, 5% glycerol, BSA, 1.58 uM 47 bp competitor DNA (absent in free DNA …)
[2] = target: MeCP2 R133G R133G (Homo sapiens) (UniProt P51608); settings: apparent, competitor DNA, EMSA: 20 mM HEPES pH 7.5, 75 mM NaCl, 125 mM KCl, 50 uM EDTA, 2.5 mM beta-mercaptoethanol, 5% glycerol, BSA, 1.58 uM 47 bp competitor DNA (absent in free DNA …)
[3] = target: HisMBP-MeCP2 162-309 (Homo sapiens) (UniProt P51608); settings: apparent, competitor DNA, EMSA: 20 mM HEPES pH 7.5, 75 mM NaCl, 125 mM KCl, 50 uM EDTA, 2.5 mM beta-mercaptoethanol, 5% glycerol, BSA, 1.58 uM 47 bp competitor DNA (absent in free DNA …)
[4] = target: MeCP2 AT-DIRmut;histone octamer R188G;R190G;K254N;K256N;R268Q|H2B T115C;H3.1 C96S;C110A (Homo sapiens;) (UniProt P51608+P0C0S8+P62807+P68431+P62805); settings: 20 mM HEPES pH 7.5, 75 mM NaCl, 125 mM KCl, 50 uM EDTA, 2.5 mM beta-mercaptoethanol, 5% glycerol, BSA, 1.58 uM 47 bp competitor DNA (nucleosome assays), absent …, low values mean tight binding
[5] = target: MeCP2 MBD;histone octamer H2B T115C;H3.1 C96S;C110A (Homo sapiens;) (UniProt P51608+P0C0S8+P62807+P68431+P62805); settings: 20 mM HEPES pH 7.5, 75 mM NaCl, 125 mM KCl, 50 uM EDTA, 2.5 mM beta-mercaptoethanol, 5% glycerol, BSA, 1.58 uM 47 bp competitor DNA (nucleosome assays), absent …, low values mean tight binding
[6] = target: MeCP2 AT-DIRmut R188G;R190G;K254N;K256N;R268Q (Homo sapiens) (UniProt P51608); settings: apparent, competitor DNA, EMSA: 20 mM HEPES pH 7.5, 75 mM NaCl, 125 mM KCl, 50 uM EDTA, 2.5 mM beta-mercaptoethanol, 5% glycerol, BSA, 1.58 uM 47 bp competitor DNA (absent in free DNA …)
[7] = target: MeCP2 full-length, e2 isoform;histone octamer H2B T115C;H3.1 C96S;C110A (Homo sapiens;) (UniProt P51608+P0C0S8+P62807+P68431+P62805); settings: 20 mM HEPES pH 7.5, 75 mM NaCl, 125 mM KCl, 50 uM EDTA, 2.5 mM beta-mercaptoethanol, 5% glycerol, BSA, 1.58 uM 47 bp competitor DNA (nucleosome assays), absent …, low values mean tight binding
[8] = target: MeCP2 full-length, e2 isoform;histone H1.0;histone octamer H2B T115C;H3.1 C96S;C110A (Homo sapiens;Homo sapiens;) (UniProt P51608+P07305+P0C0S8+P62807+P68431+P62805); settings: 20 mM HEPES pH 7.5, 75 mM NaCl, 125 mM KCl, 50 uM EDTA, 2.5 mM beta-mercaptoethanol, 5% glycerol, BSA, 1.58 uM 47 bp competitor DNA (nucleosome assays), absent …, low values mean tight binding
[9] = meCpG at +83, -61, -80 bp from dyad

ATGGAACACATTGCACAGGATGTATATATCTGACACGTGCCTGGAGACTAGGGAGTAATCCCCTTGGCGGTTAAAACGCGGGGGACAGCGCGTACGTGCGTTTAAGCGGTGCTAGAGCTGTCTACGACCAATTGAGCGGCCTCGGCACCGGGATTCTCCAGGGCGGCCGCGTATT (double strand) [15-N601-15 nucleosome unmethylated]
Kd (MeCP2 MBD (Homo sapiens)): 1000 nM | Kd [1]: 220 nM | Kd [2]: 596 nM | Kd [3]: 240 nM

GAGCCACAAAATCACCGACGCTCACGGGTGCCCAGTTCGCGCGCCCACCTACCGTGTGAAGTCGTCACTCGGGCTTCTAAGTACGCTTAGCGCACGGTAGAGCGCAATCCAAGGCTAACCACCGTGCATCGATGTTGAAAGAGGCCCTCCGTCCTTATTACTTCAAGTCCCTGGGGTACCCGTTTCACTGCCA (double strand) [16-N603-30 nucleosome 91 meCpA]
Kd (MeCP2 MBD (Homo sapiens); asymmetric meCpA at 91): 85.7 nM | Kd ([1]; asymmetric meCpA at 91): 57.1 nM | Kd ([2]; asymmetric meCpA at 91): 162 nM | Kd ([3]; asymmetric meCpA at 91): 103 nM

GAGCCACAAAATCACCGACGCTCACGGGTGCCCAGTTCGCGCGCCCACCTACCGTGTGAAGTCGTCACTCGGGCTTCTAAGTACGCTTAGCGCACGGTAGAGCGCAATCCAAGGCTAACCACCGTGCATCGATGTTGAAAGAGGCCCTCCGTCCTTATTACTTCAAGTCCCTGGGGTACCCGTTTCACTGCCA (double strand) [16-N603-30 nucleosome unmethylated]
Kd (MeCP2 MBD (Homo sapiens)): 716 nM | Kd [1]: 94.9 nM | Kd [2]: 188 nM | Kd [3]: 94.6 nM

GCTTCACCTCGTGACCCAAGCGACACCGGCACTGGGACAGGATGTATATATGTGACACGTGCCTGGAGACTAGGGAGTAATCCCCTTGGCGGTTAAAACGCGGGGGACAGCGCGTACGTGCGTTTAAGCGGTGCTAGAGCTGTCTACGACCAATTGAGCGGCCTCGGCACCGGGATTCTCCAGGGGATCCGGCATCATGGTCTAGAGCG (double strand) [37-N601-27 nucleosome 3x meCpG]
Kd [4, 9]: 42.5 nM | Kd (MeCP2 MBD (Homo sapiens); [9]): 67.9 nM | Kd [5, 9]: 67.9 nM | Kd ([1]; apparent, H1.0 prebound (chromatosome), competitor DNA, meCpG at +83, -61, -80 bp from dyad): 46 nM | Kd [1, 9]: 37.5 nM | Kd [6, 9]: 42.5 nM | Kd [7, 9]: 37.5 nM | Kd [8, 9]: 46 nM

GCTTCACCTCGTGACCCAAGCGACACCGGCACTGGGACAGGATGTATATATGTGACACGTGCCTGGAGACTAGGGAGTAATCCCCTTGGCGGTTAAAACGCGGGGGACAGCGCGTACGTGCGTTTAAGCGGTGCTAGAGCTGTCTACGACCAATTGAGCGGCCTCGGCACCGGGATTCTCCAGGGGATCCGGCATCATGGTCTAGAGCG (double strand) [37-N601-27 nucleosome -1 meCpG]
Kd ([4]; meCpG at -1 (GACAGCGCGTAC)): 119 nM | Kd (MeCP2 MBD (Homo sapiens); meCpG at -1 (GACAGCGCGTAC)): 234 nM | Kd ([5]; meCpG at -1 (GACAGCGCGTAC)): 234 nM | Kd ([1]; apparent, H1.0 prebound (chromatosome), competitor DNA, meCpG at -1 (GACAGCGCGTAC)): 80.4 nM | Kd ([1]; meCpG at -1 (GACAGCGCGTAC)): 72.1 nM | Kd ([6]; meCpG at -1 (GACAGCGCGTAC)): 119 nM | Kd ([7]; meCpG at -1 (GACAGCGCGTAC)): 72.1 nM | Kd ([8]; meCpG at -1 (GACAGCGCGTAC)): 80.4 nM

GCTTCACCTCGTGACCCAAGCGACACCGGCACTGGGACAGGATGTATATATGTGACACGTGCCTGGAGACTAGGGAGTAATCCCCTTGGCGGTTAAAACGCGGGGGACAGCGCGTACGTGCGTTTAAGCGGTGCTAGAGCTGTCTACGACCAATTGAGCGGCCTCGGCACCGGGATTCTCCAGGGGATCCGGCATCATGGTCTAGAGCG (double strand) [37-N601-27 nucleosome unmethylated]
Kd [4]: 167 nM | Kd (MeCP2 MBD (Homo sapiens)): 279 nM | Kd [5]: 279 nM | Kd [1]: 137 nM | Kd ([1]; apparent, H1.0 prebound (chromatosome), competitor DNA): 164 nM | Kd [7]: 137 nM | Kd [8]: 164 nM
